Read-outs that look alike come from different tables or passages of the source.
Experiments:
[1] = molecular target: T1, type I interferon (IFN) receptor subunit 1 (IFNAR1) (human, UniProt P17181 28-557); assay: cell-based or functional assay
T1 sequence (looked up): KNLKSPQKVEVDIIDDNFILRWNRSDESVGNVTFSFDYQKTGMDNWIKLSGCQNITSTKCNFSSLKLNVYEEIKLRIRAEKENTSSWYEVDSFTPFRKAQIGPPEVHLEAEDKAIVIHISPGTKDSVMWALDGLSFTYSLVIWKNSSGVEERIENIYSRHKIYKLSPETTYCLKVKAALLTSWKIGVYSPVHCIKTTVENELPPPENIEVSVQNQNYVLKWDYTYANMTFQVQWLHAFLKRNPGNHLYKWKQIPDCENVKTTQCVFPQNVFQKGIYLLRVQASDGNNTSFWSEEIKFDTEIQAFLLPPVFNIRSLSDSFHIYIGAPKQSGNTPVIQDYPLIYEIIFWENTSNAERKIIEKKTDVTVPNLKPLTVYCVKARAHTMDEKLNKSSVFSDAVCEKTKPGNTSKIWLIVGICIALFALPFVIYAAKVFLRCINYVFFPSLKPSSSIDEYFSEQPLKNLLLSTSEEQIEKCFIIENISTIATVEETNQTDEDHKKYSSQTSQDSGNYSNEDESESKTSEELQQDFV

[2] = molecular target: T1, type I interferon (IFN) receptor …; assay: cell-based or functional assay; remark: listed apart in the source
[3] = molecular target: T2, APRIL (Acro Biosystems, Cat: APL-H52D1) (UniProt O75888 115-250, limits assumed); assay: ELISA, APRIL coated, anti-human Fc-HRP, OD450
T2 construct: also called ARPIL; A proliferation-inducing ligand
T2 sequence (looked up): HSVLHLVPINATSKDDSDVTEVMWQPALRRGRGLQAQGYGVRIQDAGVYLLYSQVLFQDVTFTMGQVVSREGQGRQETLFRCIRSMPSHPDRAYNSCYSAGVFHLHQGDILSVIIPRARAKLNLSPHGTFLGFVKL
Method: The capabilities of fusion proteins B606401, B637302, B746201, and B805201 to bind to BAFF and APRIL were assessed by ELISA as follows:
(§1) BAFF (PeproTech, Cat: 310-13) or ARPIL (Acro Biosystems, Cat: APL-H52D1) was diluted to 1 μg/mL with PBS, and a 96-well plate was coated with the dilution overnight at 4° C. The plate was washed with PBST and blocked with Blocking Buffer (PBST containing 1% BSA) at 37° C. for 1 h. The plate was tapped. The test antibodies were diluted with Blocking Buffer. Incubation was performed at 37° C. for 1.5 h. The plate was washed with PBST. An HRP-mouse anti-human Fc antibody (GenScript, Cat: A01854-200) was diluted with Blocking Buffer. Incubation was performed at 37° C. for 40 min. The plate was washed with PBST. 100 μL of TMB substrate solution (Biopanda, Cat: TMB-S-003) was added, and color development was performed at 37° C. for 3 min. 100 μL of ELISA stop solution (Solarbio, Cat: C1058) was added. OD450 was measured.
The EC₅₀ value for the capability of B637302 to bind to APRIL decreased to 1/7 to ⅙ of that of telitacicept.

[4] = molecular target: recombinant human BAFF (R&D cat: 7537-BF-025/CF) (human, UniProt Q9Y275 134-285, limits assumed); assay: cell-based or functional assay
Sequence of recombinant human BAFF (R&D cat: 7537-BF-025/CF) (Q9Y275 134-285 limits assumed): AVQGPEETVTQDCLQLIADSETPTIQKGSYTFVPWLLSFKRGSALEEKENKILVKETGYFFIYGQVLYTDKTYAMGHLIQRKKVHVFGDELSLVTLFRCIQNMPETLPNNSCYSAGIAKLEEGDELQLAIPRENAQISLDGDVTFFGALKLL

[5] = molecular target: T3, recombinant human ARPIL (R&D cat: 5860-AP-010/CF) (human, UniProt O75888 105-250, limits assumed); assay: cell-based or functional assay
T3 sequence (looked up): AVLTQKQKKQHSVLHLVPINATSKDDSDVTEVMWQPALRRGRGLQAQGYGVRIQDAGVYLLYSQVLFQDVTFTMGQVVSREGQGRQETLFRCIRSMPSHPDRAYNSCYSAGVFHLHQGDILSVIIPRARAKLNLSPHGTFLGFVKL

[6] = molecular target: T2, APRIL (Acro Biosystems, Cat: APL-H52D1); assay: ELISA, APRIL coated, anti-human Fc-HRP, OD450; remark: listed apart in the source
Method: The capabilities of B613301, B613302, and B613303, which are fusion proteins of anifrolumab and TACI-BCMA, to bind to BAFF and APRIL were assessed by ELISA as follows:
as §1, with “96-well plate (Costar, Cat: 3590) was coated” for “96-well plate was coated”

B1: Anifrolumab (antibody, human IgG1, kappa, V domains shown)
VH: EVQLVQSGAEVKKPGESLKISCKGSGYIFTNYWIAWVRQMPGKGLESMGIIYPGDSDIRYSPSFQGQVTISADKSITTAYLQWSSLKASDTAMYYCARHDIEGFDYWGRGTLVTVSS
VL: EIVLTQSPGTLSLSPGERATLSCRASQSVSSSFFAWYQQKPGQAPRLLIYGASSRATGIPDRLSGSGSGTDFTLTITRLEPEDFAVYYCQQYDSSAITFGQGTRLEIKR
IC50, inhibition of IFN-α-induced in vitro differentiation of B cells into plasma cells [1]: 12.7 nM
IC50 (nM), inhibition of the activity of type I interferons (IFN-β, HEK-Blue IFN-α/β cells) [2]: 1.53 nM

B2: B637302 (other)
heavy: EVQLVQSGAEVKKPGESLKISCKGSGYIFTNYWIAWVRQMPGKGLESMGIIYPGDSDIRYSPSFQGQVTISADKSITTAYLQWSSLKASDTAMYYCARHDIEGFDYWGRGTLVTVSSASTKGPSVFPLAPSSKSTSGGTAALGCLVKDYFPEPVTVSWNSGALTSGVHTFPAVLQSSGLYSLSSVVTVPSSSLGTQTYICNVNHKPSNTKVDKRVEPKSCDKTHTCPPCPAPEFEGGPSVFLFPPKPKDTLMISRTPEVTCVVVDVSHEDPEVKFNWYVDGVEVHNAKTKPREEQYNSTYRVVSVLTVLHQDWLNGKEYKCKVSNKALPASIEKTISKAKGQPREPQVYTLPPSRDELTKNQVSLTCLVKGFYPSDIAVEWESNGQPENNYKTTPPVLDSDGSFFLYSKLTVDKSRWQQGNVFSCSVMHEALHNHYTQKSLSLSPGK
light: EIVLTQSPGTLSLSPGERATLSCRASQSVSSSFFAWYQQKPGQAPRLLIYGASSRATGIPDRLSGSGSGTDFTLTITRLEPEDFAVYYCQQYDSSAITFGQGTRLEIKRTVAAPSVFIFPPSDEQLKSGTASVVCLLNNFYPREAKVQWKVDNALQSGNSQESVTEQDSKDSTYSLSSTLTLSKADYEKHKVYACEVTHQGLSSPVTKSFNRGECGGGGSGGGGSMLQMAGQCSQNEYFDSLLHACIPCQLRCSSNTPPLTCQRYCSTSCREEQGEFYDHLLRDCISCASICGQHPKQCAAFCE
notes: Fusion protein of anifrolumab, TACI-19-16 and BCMA-ECD-2
Emax [3]: 2.9 nM
Flow cytometry proliferating B cell proportion (%), mean, BAFF-induced, drug at 10 nM [4]: 23.8%
Flow cytometry proliferating B cell proportion (%), mean, BAFF-induced, drug at 100 nM [4]: 22.2%
Flow cytometry proliferating B cell proportion (%), mean, BAFF-induced, drug at 1000 nM [4]: 10.9%
Flow cytometry proliferating B cell proportion (%), mean, APRIL-induced, drug at 4.12 nM [5]: 50.6%
Flow cytometry proliferating B cell proportion (%), mean, APRIL-induced, drug at 12.35 nM [5]: 50.7%
Flow cytometry proliferating B cell proportion (%), mean, APRIL-induced, drug at 37.04 nM [5]: 53.6%
Flow cytometry proliferating B cell proportion (%), mean, APRIL-induced, drug at 111.11 nM [5]: 51.5%
Flow cytometry proliferating B cell proportion (%), mean, APRIL-induced, drug at 333.33 nM [5]: 48%
Flow cytometry proliferating B cell proportion (%), mean, APRIL-induced, drug at 1000.00 nM [5]: 33.6%
IC50, inhibition of IFN-α-induced in vitro differentiation of B cells into plasma cells [1]: 10.8 nM
IC50 (nM), inhibition of the activity of type I interferons (IFN-β, HEK-Blue IFN-α/β cells) [2]: 1.59 nM

B3: B613303 (other)
heavy: EVQLVQSGAEVKKPGESLKISCKGSGYIFTNYWIAWVRQMPGKGLESMGIIYPGDSDIRYSPSFQGQVTISADKSITTAYLQWSSLKASDTAMYYCARHDIEGFDYWGRGTLVTVSSASTKGPSVFPLAPSSKSTSGGTAALGCLVKDYFPEPVTVSWNSGALTSGVHTFPAVLQSSGLYSLSSVVTVPSSSLGTQTYICNVNHKPSNTKVDKRVEPKSCDKTHTCPPCPAPEFEGGPSVFLFPPKPKDTLMISRTPEVTCVVVDVSHEDPEVKFNWYVDGVEVHNAKTKPREEQYNSTYRVVSVLTVLHQDWLNGKEYKCKVSNKALPASIEKTISKAKGQPREPQVYTLPPSRDELTKNQVSLTCLVKGFYPSDIAVEWESNGQPENNYKTTPPVLDSDGSFFLYSKLTVDKSRWQQGNVFSCSVMHEALHNHYTQKSLSLSPGK
light: EIVLTQSPGTLSLSPGERATLSCRASQSVSSSFFAWYQQKPGQAPRLLIYGASSRATGIPDRLSGSGSGTDFTLTITRLEPEDFAVYYCQQYDSSAITFGQGTRLEIKRTVAAPSVFIFPPSDEQLKSGTASVVCLLNNFYPREAKVQWKVDNALQSGNSQESVTEQDSKDSTYSLSSTLTLSKADYEKHKVYACEVTHQGLSSPVTKSFNRGECGGGGSGGGGSSRVDQEERFPQGLWTGVAMRSCPEEQYWDPLLGTCMSCKTICNHQSQRTCAAFCRSLSCRKEQGKFYDHLLRDCISCASICGQHPKQCAYFCENKLRSPVNLPPELMLQMAGQCSQNEYFDSLLHACIPCQLRCSSNTPPLTCQRYCNASVTNSVKGTNA
notes: Fusion protein of anifrolumab and TACI-BCMA
Emax [6]: 2.33 nM

B4: B606401 (other)
heavy: EVQLVQSGAEVKKPGESLKISCKGSGYIFTNYWIAWVRQMPGKGLESMGIIYPGDSDIRYSPSFQGQVTISADKSITTAYLQWSSLKASDTAMYYCARHDIEGFDYWGRGTLVTVSSASTKGPSVFPLAPSSKSTSGGTAALGCLVKDYFPEPVTVSWNSGALTSGVHTFPAVLQSSGLYSLSSVVTVPSSSLGTQTYICNVNHKPSNTKVDKRVEPKSCDKTHTCPPCPAPEFEGGPSVFLFPPKPKDTLMISRTPEVTCVVVDVSHEDPEVKFNWYVDGVEVHNAKTKPREEQYNSTYRVVSVLTVLHQDWLNGKEYKCKVSNKALPASIEKTISKAKGQPREPQVYTLPPSRDELTKNQVSLTCLVKGFYPSDIAVEWESNGQPENNYKTTPPVLDSDGSFFLYSKLTVDKSRWQQGNVFSCSVMHEALHNHYTQKSLSLSPGK
light: EIVLTQSPGTLSLSPGERATLSCRASQSVSSSFFAWYQQKPGQAPRLLIYGASSRATGIPDRLSGSGSGTDFTLTITRLEPEDFAVYYCQQYDSSAITFGQGTRLEIKRTVAAPSVFIFPPSDEQLKSGTASVVCLLNNFYPREAKVQWKVDNALQSGNSQESVTEQDSKDSTYSLSSTLTLSKADYEKHKVYACEVTHQGLSSPVTKSFNRGECGGGGSGGGGSSTSCREEQGEFYDHLLRDCISCASICGQHPKQCAAFCE
notes: Anifrolumab with TACI-19-16 at the C-terminus of the light chain
Emax [3]: 2.81 nM
Flow cytometry proliferating B cell proportion (%), mean, BAFF-induced, drug at 10 nM [4]: 28.1%
Flow cytometry proliferating B cell proportion (%), mean, BAFF-induced, drug at 100 nM [4]: 25.3%
Flow cytometry proliferating B cell proportion (%), mean, BAFF-induced, drug at 1000 nM [4]: 17.9%
Flow cytometry proliferating B cell proportion (%), mean, APRIL-induced, drug at 4.12 nM [5]: 52%
Flow cytometry proliferating B cell proportion (%), mean, APRIL-induced, drug at 12.35 nM [5]: 52.9%
Flow cytometry proliferating B cell proportion (%), mean, APRIL-induced, drug at 37.04 nM [5]: 53.6%
Flow cytometry proliferating B cell proportion (%), mean, APRIL-induced, drug at 111.11 nM [5]: 53.1%
Flow cytometry proliferating B cell proportion (%), mean, APRIL-induced, drug at 333.33 nM [5]: 50.6%
Flow cytometry proliferating B cell proportion (%), mean, APRIL-induced, drug at 1000.00 nM [5]: 40.3%
IC50, inhibition of IFN-α-induced in vitro differentiation of B cells into plasma cells [1]: 17.4 nM
IC50 (nM), inhibition of the activity of type I interferons (IFN-β, HEK-Blue IFN-α/β cells) [2]: 1.94 nM
